Source: the nanobody polyreactivity screen of Harvey et al. (2022)

Assay: yeast display, Sf9 membrane polyspecificity reagent, FACS + sequencing; frameworks hold sequencing errors
In short: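 Using colony PCR, genes from sorted yeast display clones were amplified, then sequenced on MiSeq at 2 × 250 and filtered by CDR length. The clones had been stained with 10% biotinylated, detergent-solubilized Sf9 membrane reagent for 1 hour at 4 °C and sorted by FACS into low and high (top ~1%) gates on anti-HA and streptavidin fluorescence. Polyreactivity labels come from the gate of origin.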

Sequence	polyreactivity (PSR sort gate)
QVQLVESGGGLVQAGGSLRLSCAASGIISRVYAMGWYRLAPGKERELVAAISGSGGTTYYADSVKGRFTISRDNAKNTVYLLMNSLKPEDTAVYYCAARYKALYDYWGQGSQVTVSS	high polyreactivity
QVQLVESGGGLVQAGGSLRLSCAASGFTFSINAMGWYRQAPGKERELVASITWSGGRTYYADSVKGRFTISRDNAKNTVYLQMNSLKPEDTAVYYCAARSYGTSTYDYWGQGTQETVSS	high polyreactivity
QVQLVESGGGLVQAGGSLRLSCAASGRTFFSYAMGWYRQAPGKERELVAAITYSGGRTYYADSVKGRFTISRDNAKNTVYLQMNSLKPVDTAVYYCAATHYREKMDYWGQGTQVTVSS	low polyreactivity
QVQLVESGGRLVQAGGILRLSCAASGSTFDKNAMGWYRQAPGKERQLVAAINNGGGTTYYADSVKGRFTISRDNAKNTVYLQMNSLKPEDTAVYYCAAVGKAYWSDYQYRYYYWGQGTQVTVSS	low polyreactivity
QVQLVESGGGLVQAGGSLRLSCAASGRIINYNVMGWYRQAPRKEMELVAAITRGGSTYYADSVKVRFTISRDNAKNTVYLQMNILKPEDTEVYYCSADTARRPRSYYYWGQGTQVTVSS	low polyreactivity
QVQLVESGVGLVQAGGSLRLSCAASASTFYGYTMGWNRQAPGKERELVAAITSTGRTYYADSVKGRFTISRDNAKNTVYLQMNSLKPEDTAVYYCAKKSSARRYDYDYWGQGTQVTVSS	high polyreactivity
QVQLVESGGGLFQAGGSLRLSCAASGRTFRSYAMGWYRQAPGKERELVAAISTGGSTYYADSVKGRFTISRDNAKNTVYLQMNSLKPEDTAVYYCAAEFNAYTPAGLWYTYYYWGQGTQVTVSS	high polyreactivity
QVQLVESGGGLVQAGGSLRLSCAASGIIFASNGMGWSRQPPGKERELVAAISSGGSTNYADSVKGRFTISRDNAKNTVYLQMNSLKPEDTAVYYCAAVRWYREYDYWGQGTQVTVSS	low polyreactivity
QVQLVESGGGLVQAGGSLRLSCAASGYTFGANVMGWYRQAPGKERELVAAINTRGSRTYYADSVNGRFTISRDNAKNTVYLQMNSLKPEDTAVYYCAAALRKEYDYWGQGTQVTVSS	high polyreactivity
QVQLVESGGGLVQAGGSLRLSCAASGSTFLGNAMGWYRQAPGKERELVATITGSSGSTYYADSVKGRFTISRDNAKNTVYLQMNSLKPEDTAVYYCNTVYNYWDGYDYWGQGTQVTVSS	low polyreactivity
QVQLVESGGGLVQAGGILRLSCAASGFIFAYYAMGWYRQAPGKERELVAAITRRGGSTSYADSVKGRFTISRDNAKNTVYLQMNSLKPEDTAVYYCNAVSKYDYGYWGQGTQVTVSS	high polyreactivity
QVQLVESAGGLVQAGGSLRLSCDASGSIFRYYDMGWYRQAPGKERELVAAITYYGGGTYYADSVKGRFTISRDNAKNTVYLQMNSLKAEDTAVYYCAVRRVGSIYMDRYRYVVADYVYWGQGTQVTVSS	low polyreactivity
QVQLVESGGGLVQAGGSLRLSCAASGRIFVDNAMGWYRQAPGKERELVATITSTGSTNYADSVKGRFTISRDNAKYTVYLQMNSLKPEDTAVYYCNADGKLQDYDYWGQGTQVTVSS	high polyreactivity
QVQLVESGGGLVQAGCSRRLSWAASGSTFPDYVMGWDRQAPGKERELVAAISSIGGSTYYADSVKGRFTISRDNAKNTVYLQMNSLKPEDSAVYYCAAENSYFYPFDYWGQGTQVTVSS	low polyreactivity
QVQLVESGGGLVQAGGSLRLSCAASGRIFVPNAMGWYSQAPGKERELVAAINWGGGSTYYADSVKGRFTISRDNAKNTVYLQMNSLKPEDTAVYYCAADHPYTIGVLPNQQFDYWGQGTQVTVSS	low polyreactivity
QVQHVESGGGLVQAGGSLRLSCAASGSILYLYAMGWYRQAPGKERELVAAISLGDGSTYYADSVKGRFTISRDNAKNTVYLQMNSLKPEDTAVYYCNADRYTYWQDYNYWGQGTQVTVSS	low polyreactivity
QVPLVESAGGLVQAGGSLRLSCAASGITLYVYAKGWYRQAPGKERELVAAINSGGNTYYADSVKGRFTISRDNAKNTVYLQMNSLKPADTAVYYCAAVYPRQVSHVWRDDYWGQGTQVTVSS	high polyreactivity
QVQLVESGGGLVQAGGSLRLSCAASGRIFSRYAMGWYRQAPGKERELVAAINKSGGSTYYADSVKGRFTISRDNAKNTVYLQMNSLKPEDTAVYYCNAVYYWYKGDYWGQGSQVTVSS	high polyreactivity
QVQLVESGGGLVQAGGSLRVSCAASGFIFCGYARGWYRQAPGKERELDAAISSSGGSTYYADSVKGRFTISRDNAKNTDYLQMNSLKPEDTAVYYCAKVGRSRRYYYWGQGTQVTVSS	high polyreactivity
QVQLVESGGGLVQAGGSLRLSCAASGRTFPVNAMGGYRQAPGKERELVAVINWGGTSTYYADSVKGRFTISRDNAKNTVYLQMNSLKPEDTAVYYCAARARYPGVGYNYWGQGTQVTVSS	high polyreactivity
QVQLVESGGGLVQAGGSLRLSCAASGSIFPYYAMGWYRQAPGKERELVAAINWSGDSTYYADSVKGRFTISRDNAKNTVYLQMNSLKPEDTAVYYCAARSRWRYDYWGQGTQVTVSS	low polyreactivity
QVQLVESGGGLVQAGGSLRLSCAASGRIFANYAMGWYRQAPGKERELVAGITTGGSTYYADSVKGRFTISRDNAKNTVYLQMNSLKPVDTAVYYCAVRWRNRLYYYWGQGTQVTVSS	high polyreactivity

Sequence	polyreactivity (PSR sort gate)
QVQLVESGGGLVQAGGSLRLICDASGNTIIRYAMGWYRQGPGKERELVAAISYSGGRTYYADSVKGRFTISRDNAKNTVYLQMNSLKTEVTAVYYCNAASRYGCDYWRQGTQVTVSS	high polyreactivity
QVQLVESGGGLVQAGGSLRLSCAASGFIFRLYAMGWYRQAPGKERELVAAISSSGGRTTYADSVKGRFTISRDNAKNTVYLQMNSLKPEDTAVYYCNADLWPGNHDGYWGQGTQVTVSS	low polyreactivity
QVQLVESGGGLVQAGGSLRLSCAASGSTFRYNAMGWYRQAPGKEREVVAAISRIGGTTYADSVKGRFTISRDNAKNTVYFQMNSLKPEDTAVYYCARANWGYYGPEYGYWGQGTQVTVSS	high polyreactivity
QVQLVESGGGLVKAGGSLRLSCAASGSTLDPNVMGWYRQAPGKERELVAAITSGGSTYYADSVKGRFTISRDNAKNTVYLQMNSLKPEDTAVYYCAADSHGHVFYSWYDYWGQGTQVTVSS	low polyreactivity
QVQLVESGGGLVQAGGSLRLSCAASGSIFIYYTMGWYRQAPGKEREFVASISWRGGRTYYADSVKGRFTISRDNAKNTVYLQMNSLKPEETAVYYCAAEQSRGIEFSYYSLYYWGQGTQVTVSS	high polyreactivity
QVLRVESGGGLVQAGGSLRLSCSASGFIFRPNAMGWYRQAPGKERELVARITYRGGSTYYADSVKGRFTISRDNAKKTVYLQMNSLKPEDTEVYYCAARAVTYAGYTYNYWGQGSQVTVSS	high polyreactivity
KVQLVESGGGLVQAGGSLRLSCAASGSTFSLYAMGWYRQAPGKERELVASIRWSGGRTYYADSVKGRFTISRDNAKNTVYLQMKSLKPEDTAVYYCAAAWRYGYGYWGQGTQVTVSS	high polyreactivity
QVQLVESGGGLVQAGGSLRLSCAASGYTFPYYTMGWYRQAPGKERELVAAISSGGRTKYADSVKGRFTISRDNAKNTVYLQMNSMKPEDTAVYYCNAVHSPAQCRSKYYPYNYWGQGTQVTVSS	high polyreactivity
QVQLVESGGGLVQAGGSLSLSCAASGSTFWVYAMGWYRQAPGKERELVATISRGGSTNYADSVKGRFTISRDNAKNTVYLQMNSLKPEDTAVYYCAAPRFYGYGYEYWGQGTQVTVSS	low polyreactivity
QVQLVESGGGLVQAGGSLRLSCAASGLTFGYYAMGWYRQAPGKERELVAVISGGGGTHYADSVKGRFTISRDNAKNTVYLQMNSLKPEDTAVYYCAAYTYRRYDYWGQGTQVTVSS	high polyreactivity
QVQLVESGGGLVQAGGSLRLSCAASGSIFSTNAMGWYRQAPRKERELVAAITYSGSRTYYADSVKGRFTISRDNAKNTVYLQMNSLKPEDTAVYYCAADTSWYSWWFDYWGQGTQVTVSS	low polyreactivity
QVQLVESGGGLVQAGGSLRLSCAASGSIFWGNDMGWYRQAPGKERELVAGIRNSGTSTYYADSVKGRFTISRDNAKNTVYVQMNSLKPEDTAVYDCAAADGRQYSRYYWRGHDYWGQGTQVTVSS	low polyreactivity
QVQLVESGGGLVQAGGSLRLSCAASGRIFTWYGMGWYSQAPGKERELVARITQRGGTTYYADSVKGRFTISRDNAKNTVYLQINSLKPEDTAFYYCATQYTYTGRRYYSYVDGSRYYYWGQGTQVTVSS	high polyreactivity
QVQLVESGGGLVQAGGSLRLSCAASGRILKYNALGWYRQAPGKERELVAAISYRGGSTYYADSVKGRFTISRDNAKNTVYLQMNSLKPEDTAVYYCNAGGGILNGPLFDYWGQGTQVTVSS	low polyreactivity
QVQLVESGGGLVQAGGSLRLTCAASGITFYYYAMGWYRQAPAKERELVAAISFRGGSTYYADSVKARFTISRDNPKNTFYLQMNSLNPEDTAVYYCASVTSPSWYTWVTYDYWGQGTQVTVSS	high polyreactivity
QVQLVASGGGLVQAGGSLRLSCAASGSTFARYAMGWYTPAPGKERELVAAITEGGDRTSYADSVKGRFTISRDNAKNHVYLQMHSLKPEDTAVYYCAAERRYESWYFGYRTMDYWGQGTQVTVSS	low polyreactivity
QVQLVESGGGLVQAGGSLRLSCAASGIILPYYAMGWYRQAPGKEREIVATISSDGTSTYYADSVKGRFTISRDNAKNTVYLQMNSLKPEDTAVYYCAARIRQNPGGDNSWGQGTQVTVSS	low polyreactivity
QVQLVESGGALVQAGGSLRLSCAASARIFGRNAMGWYTQAPGKERELVAAISSGGSTYYADSVKGRFTISRDNAKKTVYLQMNSLKPEDTAVYYCAVRGYYFNGGRAFESWGQGTQVTVSS	high polyreactivity
QVQLVESGGGLVQAGGSLRLSCAASGSIFTLYAMGWYRQAPGKEREFVAGISFSTGRTYYADSVKGRFTISRDNAKNTVYLQMNSLKPEDTAVYYCAAYVSHYWYGVYRDGYWGQGTQVTVSS	low polyreactivity
QVQLEESVGGLVQAGGSLRLSCAASGITFYDYTMGWYRQAPGKERELVAAISSRGGSTYYADSVKGRFTISRDNAKNTVYLQMNSLKPEDTAVYYCNARYNSWRYLAQYNYWGQGTQVTVSS	high polyreactivity
QVQLVESGGGLVQAGGSLRLSCAASGSTFRGYVMGWYRQAPGKERELVAAITYSGGSTYYADSVKGRFTISRDNAKNTVYLQLNSLKPEDTAVYYGADEIYDSYYEDDYWGQGTQVTVSS	high polyreactivity
